Measured values: the domain aggregation screens of Martell et al. (2025)

Assay: soluble fraction after stress (log2 fold change); higher = more stays soluble; pooled small domains, quantitative proteomics
Conditions: stress: pH 4
Procedure, shortened: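 Aggregation propensity is read out as the fold change in how much of each domain remains soluble after acid stress. The custom small-domain libraries were pooled, held at pH 4 and analysed with high-throughput quantitative proteomics. On the log2 scale used, higher values mean more of the domain stayed soluble.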

Sequence | soluble fraction (log2)
HMEDGRLPPPGTVLRREYKGRAVFVRVLPKGFEFEGEVYRSLSAIAAKVTGSHWNGFRFFGLHE | 0.199
HMKFLYQKAREEIISLIQDGEIKPSEKIMPERELSELLGYNRMTIKKAINSLVAEGVLMKKRGAGTFLLG | -0.45
HMIHSEDMDDHILGHKLVDQYLNKHIEFDNIKKAWNYHTVAIKKFGRYPHRNKILKRESTIEEIDFLKQP | -0.298
HMKSILSEIPGIGPKKRKSLMMQFGSVKNISEASLKDLSSTKGINSNLSKEIFNFFSVEKNN | 0.15
HMAIDINKIYSEIKKKIPNQDNHIKEILSIIWRDFNNYQNIKSRSILINGEKSSPKKEIFNIIEDNINIPV | 0.00852
HMRSLATFEEEKIALRFWNYLQSEGIKSTLEEEGPRDWVIWVIDEEKIPSATQSLEKFNLNPDDPAFSN | -0.137
HMTEALEFTVEDLRMAGLVNSSFSRRRRELFSEKLGIGYGNGKSLLKKLNGYGITREEFNGAIQSLSD | -1.3
HMDGEMRRKRILQLLSEQTKPLSGTALAKQFGVSRQVIVQDIALLKSKEPAIISTYRGYVLGR | 0.142
HMAPSPEGAAILRESVESVARDQVDRVALTMTARGYTTAEIAAALMVDRSTISRRLYAMRDRYHAQQDNAQ | -0.666
HMLINFPNKLKRLRLANNLTQQELANILETTKQAVSSYESGKSTPSLNSLIKLSEHFNISLDSLVFD | -0.446
HMDMSVDQFNQGIRGSELYQQFIHGRGLQQPDGKTREWTDADRNAWRRTLEASGVRIPDGMKIDNAGNLNE | -0.052
HMDRPARDEAQSWLADVLADGPVPTAEIREEAEAAGLAWRTIQRARIALSVEPIRGDGRNAWLWQLPG | 0.377
HMSNIQLAANLQRLRKDHHFTQTQFSKKLNISRQAYSNYETGKRIPDLDIIIRIANIYHISLENLL | -0.203
HMGLAWTVEGRTVLLGRTADRIELYNVGGGLVALARESDRISAPGVGLYVVRVVSDGQSVSQKIWIT | -0.325
HMQGQADFTQGIANFTQYPVGSRITVFTLEGRRVAVVEIGKDGTAQLDMRNKPAGVYIVNTGKQSFKWLK | -0.0678
HMYFDDEELDTYKGRASNAYSPDETAQFEEVMTTMRPDEVAAWLRSLQLRGINLPDELKDEAIMLVE | -1.22
HMEIDFDKINSIFNDANKLYEEGDYFEANNLYKNIVSSNIISKDLYYNLGLSYAKIGSNGYAILWYERALN | -0.215
HMADQIIEGILGKEGGYVNNPNDKGGPTRWGITQTTARAYGYSGDMKALPRDTAKAIYLSQYWT | -0.218
HMNDLIFSTLAEYDRDTITEIISVVDNTRGIGYEVELVRKDLIAMAAQAEARRDYLPSVIGDVEVFKRNLL | -0.0414
HMTETNSVTINERLTLYRRSRSGRWQARVKLNTGEWHRFSTGTADFEKAKESAHRELHNVGFRAENNLPQ | -0.174
HMGNGALLTLTVKERQVIQLVAEGKSNKQIARDLNVTPETIKSHMKNIFAKLKVDNRAQAAVMVQQ | 0.0874
HMSPSQFRSKSLLVEINFASRQMDGEILQGDYAGKRLSELTEAEVQELTAWLKQSDRESFVLLQAYLLRSG | -1.17
HMIAIGDDARLDDAARFFRIAEDSYAAGDYRKSKENYIEARKLYAELGDHEKVNLINSKISAIDSIT | -0.0121
HMRKSNADALDGKTGIVKEEIKTGGYGYVGIDGDMWRSISESGEAIPAGTKVVVISHESIILTVKPA | ≥ 0.43
HMGGTFLVRILDPALNIRAQPSLTARINGVIRDKSVYTIVATSFEPKTQITWGKLKSGAGWISIGSKYVKK | 0.0406

Sequence | soluble fraction (log2)
HMASLASVAYETLRQALDNFQYVPGDRFSESEVGQQLGMSRTPVREALVRLQREGYISVLPKMGWVVNQ | -0.953
HMGTPEQVVVSSVLKETNEIVLKWPADGFMAKYKMDNLNLNFEPVHGQGVMGYFIGSRLIKLELV | -0.33
HMQTTPAGHELLIRYFANGNIRERGMMKDGKRNGIWIFYDESGMEIRKTKYKMGKIISDYDLN | 0.0593
HMTAQLAAQERTHALDMFMGGYKFSSKPAENGVRAEFEKKNFTLEDGKFLGGDEFMKSLMENDDYKGAFV | -0.509
HMIYNSGTTDSRGEAIVGGYLVTVTDTDTKDPVANAAVTLHKDNSISIRLPNSRLLDYADQTTVTVQLV | -0.00411
HMLGSVRTIRQVLDDGRLIVADGGGNPSVIRRSGALAHETFANGQRVIVDPSGRLALELLPD | 0.315
HMDPDARQDAEVWLLDFLSAGPRTAQEIFTAARVEGHTRVTVKRAKATAGIQSVKQDFDGPWVWVLPGSG | -0.932
HMTNNDIIRRVRYLFNFSDKQVIELFKLANETVSIEHVSGWLKKEEDPTLIEISDRDLAVFLNGLII | -1.65
HMGDGAWQQGEGGRWWYKYNNGTYPKDRVVTIGGKKYGFDSEGWMLSDTTKAFGGTTYSFAADGVATAQA | -0.247
HMEIFSIEPDSYLGSGEEIASYYREGVTVIVNMAKLSDAESLRMVDFMSGLKLALLGNIKRITKHVYLLTP | -0.966
HMNQEFRMPNAIKGVELSEENKQQLTQGEKVFLEGMTSAKGSLFDAYVYIDQEKKTLAFDFPEK | -0.792
HMKGKDLQDAVVTVVGGAENWNAIRAWAQASASDSEKREINAAFQSGKLMATMMAERLALAYQQSG | 0.0105
HMSNRIDKIKLNHWLNIRKTSLDVLNNLLSKHLNHKINFENLENLDEQAIEKISEVLSIPKNKLLINDDVP | -0.226
HMETINERVNSIIEREGHTVATFAKKIGVPWTTIKNIVSGRNAPSYDIMVKIINAVDWVDANYLVMG | -1.16
HMFGEDNLKSKEIKERVTEVAKHADDPVWIEARRKWKDENPDQNVKDYQQAYISGRIHELPWDVSYI | -0.0276
HMENVQLRNFAIKATEAGIIKLSSDQRTFMWASNQKKLMTVPFDEHPYSAMAQFFKTDEGLAVFKSIEKKL | -0.428
HMDKSPVLQLNRDVPAGQQISADDFRTVEIGADGAFRSVPSSDLNAMVGSYAKVRLIAGTLLAREALQSG | -0.0884
HMGYTLDVAHGVTEDMNFSEAFATAREEVGPGGIFYWHGKPYGTYYENEWNAMDEEDKAEYWDAVGRTTA | -0.508
HMERNAEDFAAKYQEIYQDMFRFALYTLKNRQEAEDVVSETVLDAWKGIEGLKNESAFSAWMFRILVNK | -0.325
HMVWINIRDLSDLFSKSGKSENSKNILDLQTLKIEKLLGGGQINTPYTIKVKQATPSAIEKVKQAGGEVIL | -0.00604
HMVAELAEMAENKNITSAQLALAWILKQSENIIPIPGTKRIKYLNENIEAVNVDLSKEDVENIENLLRKYP | -0.65
HMTEKPTREAHILDQLARDGGVLVAALSRELGVSEVTIRSDLRDLEAAGLLQRTHGGAQASSFQTVL | -0.48
HMKNVEEMILGKLKRKVSENLENASFEEIILVDAEKSVYKGIIKANYIEYYFRVNLSTGEVLSWKLK | -0.755
HMQITNEGQIKLVISEVLNENQEQKKQYLSGKEQVLGYLIGKVMQKTKGKANPKLVNDLMIKELS | 0.217
HMKGILVPASSIISDGDKNYVWTVEKGKAKKVEVTLGNADAENQEISSGLTKDSKVITNPTDSLKDGQEV | 0.269

Sequence | soluble fraction (log2)
HMSEPIYTQLKEILTQKIVNGEFPPGARLPSEYELTELYHISRSTVRLALKELEASGMIVRRRGKGTFVSS | -0.0496
HMSEVPVLVAKTDIKELELIDDRKVTLINVPQKFKMPGSFNSPEEVYNTIAAVPIKEGEQITKPRVTWP | -0.443
HMSSLEQVYPNPVSSILKLNSFIKNYKILNATGHEVLKGSGNTINVGKLPSGSYFLITSENYSIKFIK | 0.119
HMTDGLTVPMQGVVIRYKAKKGDKVAVGDAVAVLEAMKMEQNIFANKSGTIKEIYIKEGTTVTPGDVLMSI | -0.89
HMAMDVKEVLLPGVGLRYEFDNSDGDRIGVIAKRSGDFEVVRYTAADRDAAQPMFRLTDEEADALAQILGA | -0.487
HMTVSADQTTADAVIKLIDAIGTVSKNSGSAISAARSGYDALTDAQKKLVTNYNKLTQAEQVFSSLS | -0.165
HMGASVGEVESVKTASEIYTAAAGKIVAVNDAVAKDPSLVNSDPYGNGWLVKLEIADLSAINA | -0.304
HMRAFTPSEAQVAHARRVMEAFWQHQREGHGAFALDGKMVDAPIVKAAARVLARAGLQDPNHPIHLA | 0.0106
HMEEQELQLIQFPIASGSAWAGKAVRELILPPETLLVMLIRGTETMIPKGDTMVQEGDTAVLSASAYRDD | -1.61
HMTVLIDEQSSDGLLKITVTANTAVKSITIADELLEDKEQLEDYLILVLNKAIARANQVNQTELDAVAK | 0.163
HMQQFGANVRLIRKARQMSIKQLSELSGVSQTMISEVERGLKIPTIDVAGKIAAALGIDLTNLMG | 0.0733
HMPADHYEVLGIARDADAAEVKRAYRRLARESHPDANHGDSGAEVRFKAVSAAYEVLSDPERRARYDRFGH | -0.257
HMSKHATLLEALADLSVKLKPHSQLPSERALSEEYGVSRMTLRRAIDVLQARGYIYSVPSKGLFVSEP | -0.0584
HMGPNSVPDLRGKSLRQAMKMVNDLELKAIFEGEGIVVGQVPAPGKPVPETKILKITLSLEPY | 0.0736
HMDHWQSVNSALELLEVSRRTLYDYISRKKLQTKKEGKYRYVWIDDDVIEEIKTSKSAYIEINN | -1.08
HMTVSLTDVPFVPEILDRLERPELDVLLAILNGATNTFDLAAKTGRSRDELDEVLDRLTTLGLIER | -1.12
HMYVADVVGMGIKDALYILENQGLRVVFTGKGVVKNQSIAVGEKIIKGEKIVLML | -0.723
HMAKPVKSPLPGSVIKVAVKVGQQIKRGDLLLTLESMKMENSILAEKDGVVKNIHVQAGQSVMQDDLLLDI | -0.957
HMFDGNIKIVEDAFSVTIVARGTEVKISGDPENVYLASKTVEGLLTLIDKGEAITDQRVHYVIGLVREG | -1.71
HMKPAFTPYVVKVTADVLNVRSGPGTNYGITTKVKKGEAYTIVEEKNGWGKLKSGAGWISLEYTVK | -0.0552
HMQESTILPAQKSAISSLATSAGFSSENLKRYLLQNYGVDLKDLTRSQGAEVIKAFQSGNVSKP | 0.246
HMKGRPTTAIITDERTNLRSGPGATNKTIAQAGAGEKLAIIDEKDGWYQVSRAGINGWVAGWVIDVAW | -0.945
HMNNTIKFSVDENNSGKRLDVYLTENINHLTRSFLKKLIEKEQVKLNKKVLTSPATKVKTKDQITINIIE | -0.26
HMTALAVGDRVKMDKSATIYGTMRKFAAWVYATKLYVRGIDGNRVVVSTLKSGAITGAVDKKHLTK | -0.0515
HMAPGVHVEALLPYTAGSLVSQIREYGNVDAVEYRDTGILLQADVDERLAAQIMDQALEDPV | -1.03
